Experimental data as given in US8367360B2, “Method of screening for inhibitors of tau protein phosphororylation by tyrosine kinase c-Abl” (Proteome Sciences plc, priority 2004, dated 2013).
Entries after “also recorded” stand apart in the source; their conditions may differ.

How the values were obtained:
[1] = target: V5 tagged human tau mutant Y310F (human) (UniProt P10636); experiment: cell-based or functional assay
[2] = target: V5 tagged human tau mutant Y197F (human) (UniProt P10636); experiment: cell-based or functional assay
[3] = target: V5 tagged human tau mutant Y394F (human) (UniProt P10636); experiment: cell-based or functional assay
[4] = target: V5 tagged human tau mutant Y18F (human) (UniProt P10636); experiment: cell-based or functional assay
[5] = tested on: primary rat neuronal cultures; experiment: Amyloid beta treatment of neurons and isolation of lipid rafts; format: cell-based
Method: Rat and human primary cortical neuronal cultures were treated with fibrillar Aβ25-35 or Aβ1-42 for 1-30 min. Lipid rafts were prepared from control untreated and Aβ-treated neuronal cultures by scraping the cells from one 80 cm^2 flask into 2 ml 1% Triton X-100 in 25 mM Mes, pH 6.5 containing protease inhibitors. Cells were disrupted by Dounce homgenization. The homogenate was mixed with 2 ml of 90% sucrose (w/v) in 25 mM Mes, 150 mM NaCl pH 6.5 and placed in a 12 ml centrifuge tube. A 5-35% step sucrose gradient was formed by overlaying the homogenate mix with 4 ml of a 35% (w/v) sucrose solution followed by 4 ml of a 5% (w/v) sucrose solution. This was then centrifuged at 39,000 rpm for 18 hr in a Beckman SW41 rotor. 1 ml fractions were collected from the top of each gradient. The lipid raft fraction partitioned at the interface between the 5% (w/v) sucrose layer and the 35% sucrose (w/v) layer, fractions 4 and 5. Lipid raft fractions were concentrated by mixing the raft fractions (4 and 5) with 10 ml dd H2O and centrifuging at 39,000 rpm for 2 h in a Beckman SW41 rotor. The supernatant was aspirated and the remaining pellet was resuspended in 100 μl of 2× sample buffer. Western blots of lipid raft proteins were probed for antibodies to flotillin and protein loading corrected by scanning densitometry. Tau was detected in lipid rafts by probing western blots of lipid raft proteins using a polyclonal anti-tau antibody (DAKO).

[6] = tested on: COS-7 cells transfected with V5 tagged human tau; experiment: Phosphorylation of tyrosine residues in tau in cultured cells treated with pervanadate; format: cell-based; settings: 20 minutes, Y394-only mutant and wild-type tau
Description: In a first set of experiments, COS-7 cells were transiently transfected with V5 tagged human tau longest isoform or with V5 tagged mutants of tau where one tyrosine has been replaced by one phenylalanine (named Y18F, Y29F, Y197F, Y310F and Y394F) constructs. In a second set of experiments, COS-7 cells were transiently transfected with the V5 tagged tau (441) construct or with V5 tagged mutants of tau where only one tyrosine is remaining, the four other tyrosines being replaced by phenyalanine (named Y18-only, Y29-only, Y197-only, Y310-only and Y394-only according to the remaining tyrosine). In order to increase tau tyrosine phosphorylation, cells were treated with the tyrosine phosphatase inhibitor pervanadate for 20 minutes. Cells were harvested in NETF buffer (100 mM NaCl, 2 mM EGTA, 50 mM Tris-Cl pH 7,4 and 50 mM NaF) containing 1% NP-40, 2 mM orthovanadate and protease inhibitors. Samples were precleared with 40 μl of protein G-Sepharose beads, and immunoprecipitations were carried out with monoclonal anti-V5 antibodies preadsorbed on protein G-Sepharose beads. Cells were harvested in NETF lysis buffer containing 1% NP-40 and tau was immunoprecipitated using an anti-V5 antibody. […] Quantification was achieved by scanning the autoradiograms with GS710 Calibrated Imaging Densitometer (Bio-Rad) and measurement of relative optical density with Quantity One 4.0.3 software (Bio-Rad).

[7] = pre-treatment of neuronal cultures with inhibitor before exposure to Aβ

With “AblΔXB (a constitutively active form of Abl, with deletion of most of the SH3 domain) (enzyme)” the tyrosine phosphorylation of immunoprecipitated tau (4G10 Western blot), CHO cells co-transfected with AblΔXB (% of the wild-type control) [1] was 70, the tyrosine phosphorylation of immunoprecipitated tau (4G10 Western blot), CHO cells co-transfected with AblΔXB (% of the wild-type control) [2] was 70 and the tyrosine phosphorylation of immunoprecipitated tau (4G10 Western blot), CHO cells co-transfected with AblΔXB (% of the wild-type control) [3] was 25.

For “Fyn tyrosine kinase (expressed from Fyn cDNA in CHO cells) (from UniProt P06241 1-537) (enzyme)”, the tyrosine phosphorylation of immunoprecipitated tau (4G10 Western blot), CHO cells co-transfected with Fyn (% of the wild-type control) [1] was 50 and the tyrosine phosphorylation of immunoprecipitated tau (4G10 Western blot), CHO cells co-transfected with Fyn (% of the wild-type control) [4] was 50.

With “Aβ1-42: fibrillar amyloid β-peptide 1-42 used to treat neurons” the “tyrosine phosphorylation of neuronal protein components of lipid rafts” value ([5]; peptide treatment of primary rat neuronal cultures) was “rapid increase”.

In the case of `CC(C)(C)n1nc(-c2ccc(Cl)cc2)c2c(N)ncnc21` [PP2], the “Aβ-induced increase in tyrosine phosphorylation of lipid raft proteins” value ([5]; inhibitor given with Aβ treatment, primary rat neuronal cultures, western blot of lipid rafts) is reported as “abrogated”, the “Aβ-induced recruitment of Fyn to lipid rafts” value [5, 7] is reported as “blocking of the recruitment” and the “Aβ-induced recruitment/partitioning of tau into lipid rafts” value [5, 7] is reported as “abrogated; also recorded: blocking of the recruitment”.

In the case of pervanadate, the “tyrosine phosphorylation of tau (4G10 western on immunoprecipitated tau)” value [6] is reported as “induces an increase in tyrosine phosphorylation”.
